Assay results published in patent US20110269944.

How the values were obtained:
[1] = test system: HGF-G1 precursor protein (HGF-NG with Leu488-Arg489 at the C-terminus of the α chain converted into His-Tyr)
[2] = test system: HGF-G2 precursor protein (HGF-NG with Arg489-Val490 converted into Tyr-His)
[3] = test system: HGF-G3 precursor protein (HGF-NG with Lys-Thr-Lys-Gln-Leu-Arg at 484-489 converted into Pro-Gly-Ala-Ala-His-Tyr)
[4] = test system: HGF-NG precursor protein (5-amino-acid-deleted-type/glycosylation-deficient human HGF with the natural α chain-β chain boundary sequence Arg489-Val490)
HGF-NG precursor protein (5-amino-acid-deleted-type/glycosylation-deficient human HGF with the natural α chain-β chain boundary sequence Arg489-Val490), sequence (chain, as listed by the source, stated change not applied): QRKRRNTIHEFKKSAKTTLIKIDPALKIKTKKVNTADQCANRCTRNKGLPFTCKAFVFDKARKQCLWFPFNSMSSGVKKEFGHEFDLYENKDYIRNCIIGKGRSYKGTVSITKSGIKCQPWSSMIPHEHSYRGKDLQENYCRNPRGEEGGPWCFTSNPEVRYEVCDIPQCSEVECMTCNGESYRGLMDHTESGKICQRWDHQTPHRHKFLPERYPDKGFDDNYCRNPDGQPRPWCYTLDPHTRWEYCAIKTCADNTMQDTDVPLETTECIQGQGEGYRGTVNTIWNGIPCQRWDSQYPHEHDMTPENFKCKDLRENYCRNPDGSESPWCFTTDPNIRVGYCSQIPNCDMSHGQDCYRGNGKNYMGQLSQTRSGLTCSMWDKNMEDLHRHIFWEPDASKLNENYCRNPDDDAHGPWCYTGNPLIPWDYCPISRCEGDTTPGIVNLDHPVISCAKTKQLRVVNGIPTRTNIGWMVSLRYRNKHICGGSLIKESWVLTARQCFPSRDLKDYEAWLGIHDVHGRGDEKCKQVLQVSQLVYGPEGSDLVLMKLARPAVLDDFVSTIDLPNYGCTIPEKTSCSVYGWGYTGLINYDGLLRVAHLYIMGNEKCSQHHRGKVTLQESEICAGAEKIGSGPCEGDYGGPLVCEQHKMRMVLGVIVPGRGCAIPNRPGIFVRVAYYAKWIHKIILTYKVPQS

HGF-G3 precursor protein (HGF-NG with Lys-Thr-Lys-Gln-Leu-Arg at 484-489 converted into Pro-Gly-Ala-Ala-His-Tyr), sequence (chain, as listed by the source): as the sequence (chain, as listed by the source, stated change not applied) above, with K453P, T454G, K455A, Q456A, L457H, R458Y counted along it
HGF-G1 precursor protein (HGF-NG with Leu488-Arg489 at the C-terminus of the α chain converted into His-Tyr), sequence (chain, as listed by the source): as the sequence (chain, as listed by the source, stated change not applied) above, with L457H, R458Y counted along it
HGF-G2 precursor protein (HGF-NG with Arg489-Val490 converted into Tyr-His), sequence (chain, as listed by the source): as the sequence (chain, as listed by the source, stated change not applied) above, with R458Y, V459H counted along it

Genenase I (made by New England Laboratory)
cleavage of the single-stranded precursor into α and β chain bands (western blot, reducing SDS-PAGE) [1]: after Genenase I treatment, bands were detected at the same positions as those of the α chain and β chain of HGF-NG
cleavage of the single-stranded precursor into α and β chain bands (western blot, reducing SDS-PAGE) [2]: after Genenase I treatment, bands were detected at the same positions as those of the α chain and β chain of HGF-NG
cleavage of the single-stranded precursor into α and β chain bands (western blot, reducing SDS-PAGE) [3]: after Genenase I treatment, bands were detected at the same positions as those of the α chain and β chain of HGF-NG
cleavage of the single-stranded precursor (western blot, reducing SDS-PAGE) [4]: HGF-NG precursor protein having a natural α chain-β chain boundary sequence was not cleaved by Genenase I
